From patent US20220315908A1, “NOVEL GARDNERELLA ENDOLYSINS AND USES THEREOF” (priority 2019, published 2022)

How the values were obtained:
G. piotii strain Gv_17 = assay: Quantitative reduction in viable CFU assay in bacterial suspension; type: cell-based, Gardnerella piotii; conditions: 5 hours, pH 5.0, anaerobic, 10 ul endolysin (0.2 mg/ml where possible) + 90 ul 5e7 CFU/ml, average of triplicate
Protocol: The lysis activity on the four main species of Gardnerella of 91 constructs (natural and domain-swapped endolysins) was quantitatively assessed using the method described in Reference Example 2. Briefly, 90 ul 5e7 CFU/ml of the indicated strain were incubated for 5 hours at pH 5.0 under anaerobic conditions with 10 ul endolysin (concentration adjusted to 0.2 mg/ml where possible, see Table 4).
The results are shown in FIGS. 8A to 8D together with Tables 5A to 5C. In FIGS. 8A to 8D, the logarithmic Y axis depicts the count of surviving cells. The dotted line indicates the limit of detection (LOD) given by plating of 2 ul of the reaction mix (500 CFU/ml). Each combination of the natural 10 H-domains and the natural 9 B-regions was assessed, including the natural endolysins (H1B1, H2B2, H3B3, etc.), plus H6B6. […] The activity of each construct was measured on each of the 4 main Gardnerella species G. vaginalis sensu stricto, G. leopoldii, G. piotii, and G. swidsinkii. All conditions have been measured in triplicate. The survival after 5 hours incubation at pH 5.0 under anaerobic conditions with endolysins vs. buffer was measured by quantitative plating. The values indicate the log 10 of the ratio of surviving CFU for treated vs. untreated cells. The average of the triplicate measurements is used. In tables 5A and 5B, high negative log 10 values, e.g. −6.7, −5.5, −4.8 etc. are associated with high enzymatic activity, while log 10 values closer to zero or even positive log 10 values are associated with low or no enzymatic activity. […] Inversely, a reduction value of −3.7 means a 10^3.7-fold (=5012-fold) reduction of viable CFU in treated sample vs. untreated control.
(§1) Gardnerella cells were recovered from cryo stock by plating on Chocolate Agar plates (Beckton Dickinson) and incubating for 48 h at 37° C. under anaerobic conditions. For Lactobacilli, BD Schaedler/5% sheep blood agar plates were used instead. Colonies were scraped from the plate, resuspended in Hardy Broth or NYC-III-HS-5.0 at the pH as indicated, and the suspension adjusted to OD (610 or 620 nm as indicated) 0.1. It has to be noted that two Tecan Microplate readers, having respectively a 610 nm or 620 nm filter, have been used interchangeably in the experiments. Although it doesn't make any difference for the experiments, the exact wavelength used is specified in each example. If not stated otherwise, 90 μl cell suspension was mixed with 10 μl endolysin solution, for the different species/endolysin combinations, in 384-well plates. OD(610-620 nm as indicated) was measured at the beginning of the reaction and at the end, either as two measurement points or as a continuous kinetic in a Tecan F200 Microplate reader. The reactions were incubated for 5 hours (or otherwise the time indicated) at 37° C. under anaerobic, micro-aerophilic or aerobic conditions as indicated. Anaerobic conditions intend that oxygen was fully depleted from the container in which the bacteria are incubated (Sigma-Aldrich anaerobic jar or sealable lunch box) with an anaerobic sachet, and the lack of oxygen was confirmed with an anaerobic indicator inside the container. Where micro-aerophilic conditions are indicated, the candle-in-a-jar method was used (tea candle lit in an appropriate sealable container, which reduces oxygen levels until the flame dies out). Then each well was diluted in 5 steps (10^−1 to 10^−5) using 96-U-well bottom plates, and 2 μl of each dilution of each reaction mix are plated on BD Chocolate agar plates or BD Schaedler/5% sheep blood agar plates for Gardnerella and Lactobacilli, respectively, for detecting and quantifying surviving CFU. Detection plates were incubated at 37° C. for 48 hours under anaerobic conditions.

Gardnerella cells = assay: Turbidity reduction (OD) assay of Gardnerella suspensions; type: cell-based; conditions: Gv_10 pH 6.0, Gv_17 pH 7.0, Gv_23 pH 7.4; aerobic, room temperature; vs buffer
Protocol: FIGS. 4A to 4C show three enzymatic activity assays where the enzymatic activity of natural Gardnerella prophage endolysins of the present disclosure is measured by detecting the change in turbidity of a suspension of Gardnerella cells. In FIG. 4A, the enzymatic activity of the endolysins is measured by detecting the change in turbidity of a suspension of the G. leopoldii strain Gv_10 at pH 6.0. In FIG. 4B, the enzymatic activity of the endolysins is measured by detecting the change in turbidity of a suspension of the G. piotii strain Gv_17 at pH 7.0. In FIG. 4C, the enzymatic activity of the endolysins is measured by detecting the change in turbidity of a suspension of the G. swidsinskii strain Gv_23 at pH 7.4. Treatment was conducted in a medium adjusted to the appropriate pH in a photometric cuvette against buffer. Then, the change in turbidity was assessed by measuring the optical density (OD) at 600 nm. As a result, the drop in turbidity was more pronounced for the endolysin treated groups than for the buffer, indicating enzymatic activity.
To test the activity of the purified endolysins, the turbidity change of Gardnerella suspensions (see Table 2) was measured at 610-620 nm using essentially the method described in Reference Example 2, where 95 ul of bacterial suspension in Hardy Broth at the indicated pH was mixed with 5 ul of endolysin solution in a photometric cuvette under aerobic conditions at room temperature. In turbidity reduction assays, a decrease in light scattering (i.e., turbidity reduction) of a suspension of live cells can be used in a spectrophotometer to assay the activity of peptidoglycan hydrolases. The reduction in optical density over time (minutes) can be used to calculate a rate of hydrolysis. Results are compared to a “no-enzyme added, buffer only” control preparation treated identically for the same period of time. In this manner, a specific activity of the enzyme preparation can be reported as ΔOD/time/ul lysin protein. […] As explained above, due to the low content of peptidoglycan in the cell wall, the fact that a peptidoglycan-degrading enzyme such as the identified endolysins could efficiently lyse the bacterial cell walls was an unexpected and surprising discovery.
as §1, with “Then each well was diluted in 5 steps (10^−1 to 10^−5) using 96-U-well bottom plates, and 2 μl of each dilution of each reaction mix are plated on BD Chocolate agar plates or BD Schaedler/5% sheep blood agar plates for Gardnerella and Lactobacilli, respectively, for detecting and quantifying surviving CFU. Detection plates were incubated at 37° C. for 48 hours under anaerobic conditions.” left out

B1: H10B10: natural Gardnerella prophage endolysin from strain G30-4 (protein)
chain: MSKRGIDVSVWQGDIDFNAVKASGVEFVIIRAGYGIGHKDKWFEENYRKAKTVGLDVGAYWYSYASSAGEASEEAQSCVNILSGKSFEYPVYFDLEEKSQLNRGRDFCDSLITSFCNKLEACGYYAGFYTSLSVANNLVSSHVRDRYALWIAQWNTHCSYQGSYGLWQYSSSGSVNGIAGRVDMDYAYVDYPSVIKNAGLNGYKNGGSYTAPQISSIDEVAREVINGDWGNGNERKQRLTSAGYDYASVQNKVNELLGVKAYRKSVDELAREVIRGTWGNGSTRKQRLTQAGYDYNAVQKRVNELL
modifications: EL10_strain_G30-4
G. piotii strain Gv_17
  log 10 of the ratio of surviving CFU for treated vs. untreated cells: −2.4 log 10
Gardnerella cells
  enzymatic activity by drop in turbidity (capacity to lyse Gardnerella cell walls): active

B2: H12B12: natural Gardnerella prophage endolysin from strain 3549624 (protein)
chain: MSKKGIDVSVWQGDIDFNAVKASGVEFVIIRAGYGIGHKDKWFEENYRKAKTAGLDVGSYWYSYASSAGEVALEAQSCVNILSGKSFEYPVYFDLEEKSQLNRGRDFCDSLITSFCNKLEACGYYAGFYTSLSVANNLVSSHVRDRYALWIAQWNTHCSYQGSYGLWQYSSSGSVNGIAGRVDMDYAYVDYPSVIKNAGLNGYQNGGSYTAPQTSSIDEVAREVINGDWGNGIERKNRLTSAGYDYTSVQNKVNELLGVKAYRKSVDELAREVIRGTWGNGKTRKQRLTQAGYDYNAVQKRVNELL
modifications: EL12_strain_3549624_non-prophage
G. piotii strain Gv_17
  log 10 of the ratio of surviving CFU for treated vs. untreated cells: −0.3 log 10
Gardnerella cells
  enzymatic activity by drop in turbidity (capacity to lyse Gardnerella cell walls): active

B3: H11B11: natural Gardnerella prophage endolysin from strain JCP8017A (protein)
chain: MSKRGIDVSVWQGDIDFNAVKASGVEFVIIRAGYGIGHKDKWFEQNYRKAKTTGLDVGAYWYSYASSAGEAAEEAQSCVNILSGKSFEYPVYFDLEEKSQLNRGRDFCDSLITSFCNKLETYGYYAGFYTSLSVANNLVSSHVRDRYALWIAQWNTHCDYQGSYGLWQYSSSGSVDGIAGRVDMDYTYVDYPSVIKKAGLNGYKNGGSYTAPQTSSIDEVAREVINGDWGNGNERKNRLTSAGYDYTSVQNKVNELLGVKAYRKSVDELAREVIRGTWGNGSTRKQRLTQAGYDYDAVQKRVNELL
modifications: EL11_strain_JCP8017A
notes: natural Gardnerella prophage endolysin from strain JCP8017A
G. piotii strain Gv_17
  log 10 of the ratio of surviving CFU for treated vs. untreated cells: −1.0 log 10
Gardnerella cells
  enzymatic activity by drop in turbidity (capacity to lyse Gardnerella cell walls): active
